In PMC2244710, “The Gammaherpesvirus m2 Protein Manipulates the Fyn/Vav Pathway through a Multidocking Mechanism of Assembly” (PLoS ONE, 2008):
Square brackets hold non-standard residues; d marks the D form. Ends that are not written are not given here. * marks the point of attachment. Biotin = O=C1N[C@H]2[C@H](CS[C@H]2CCCCC(=O)*)N1; pY = N[C@@H](Cc1ccc(OP(=O)(O)O)cc1)C(=O)O

Target: T1, GST fusion of the SH2 domain of mouse Fyn (residues 145-247) (mouse, UniProt P39688 145-247)
T1 construct: SH2 domain of mouse Fyn, residues 145-247; Cloned into pGEX-6P-1; also called GST-SH2 (Fyn); SH2 domain of Fyn; source: Escherichia coli, IPTG induction, purified with glutathione-sepharose beads
T1 sequence (P39688 145-247): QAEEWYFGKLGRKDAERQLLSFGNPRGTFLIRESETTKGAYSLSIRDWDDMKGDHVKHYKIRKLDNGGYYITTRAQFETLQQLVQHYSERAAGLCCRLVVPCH
Assay: pull-down; 10 µg of biotinylated pY120 peptide incubated with increasing amounts of purified GST proteins overnight at 4°C; recovered with streptavidin-conjugated beads; anti-GST immunoblot
Conditions: both partners purified

B1: N-terminal biotinylated, tyrosine phosphorylated M2 peptide incorporating Y120 (SPEENIpYETANSE) (peptide)
peptide: Biotin-SPEENI[pY]ETANSE
notes: region of M2 of MHV-68 incorporating Y120; numbers count on: the final spliced form of the protein; also called pY120 peptide; phosphorylated Y120 peptide; source: synthetic peptide, bought: Sigma
  binding result: binds
